How the values were obtained:
TcUGM = target: T1, TcUGM (Trypanosoma cruzi, UniProt Q4E1W2); assay: UV-visible spectrum of purified enzyme; HPLC of released flavin; format: binding; settings: noncovalently bound, co-purified
T1 construct: gene Tc00.1047053507993.160

[1] = system: NC(=O)C1=CN([C@@H]2O[C@H](COP(=O)(O)OP(=O)(O)OC[C@H]3O[C@@H](n4cnc5c(N)ncnc54)[C@H](O)[C@@H]3O)[C@@H](O)[C@H]2O)C=CC1; assay: purified protein; settings: oxidase activity (kox), air-saturated 50 mM phosphate pH 7.0, room temperature, no UDP-Galp
[2] = system: NC(=O)C1=CN([C@@H]2O[C@H](COP(=O)(O)OP(=O)(O)OC[C@H]3O[C@@H](n4cnc5c(N)ncnc54)[C@H](OP(=O)(O)O)[C@@H]3O)[C@@H](O)[C@H]2O)C=CC1; assay: purified protein; settings: oxidase activity (kox), air-saturated 50 mM phosphate pH 7.0, room temperature, no UDP-Galp
[3] = system: O=c1ccn([C@@H]2O[C@H](COP(=O)(O)OP(=O)(O)O[C@H]3O[C@@H]([C@H](O)CO)[C@H](O)[C@H]3O)[C@@H](O)[C@H]2O)c(=O)[nH]1; assay: purified protein; settings: reduced with 20 mM dithionite, 25 mM Hepes, 125 mM NaCl pH 7.5, 37°C

T1 sequence (Q4E1W2 entry or part of it): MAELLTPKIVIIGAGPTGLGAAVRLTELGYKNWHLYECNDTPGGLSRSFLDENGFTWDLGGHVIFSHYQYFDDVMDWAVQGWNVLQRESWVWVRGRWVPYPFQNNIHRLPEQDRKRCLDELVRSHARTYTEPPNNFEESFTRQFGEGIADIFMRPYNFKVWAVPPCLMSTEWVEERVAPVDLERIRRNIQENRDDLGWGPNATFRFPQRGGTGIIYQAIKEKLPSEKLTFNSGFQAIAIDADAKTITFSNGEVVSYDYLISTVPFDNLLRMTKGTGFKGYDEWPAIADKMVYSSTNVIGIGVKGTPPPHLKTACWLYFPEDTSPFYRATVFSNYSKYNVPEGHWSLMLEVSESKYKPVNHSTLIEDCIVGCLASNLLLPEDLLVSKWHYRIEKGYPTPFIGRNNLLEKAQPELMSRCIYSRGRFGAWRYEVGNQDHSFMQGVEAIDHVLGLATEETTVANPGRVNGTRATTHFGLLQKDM

| Molecule | UV-visible spectrum of purified enzyme; HPLC of released flavin (TcUGM) | Km [1] | kcat [1] | Km [2] | kcat [2] | Km [3] | kcat [3] | kcat/Km [3] |
| --- | --- | --- | --- | --- | --- | --- | --- | --- |
| Cc1cc2nc3c(=O)[nH]c(=O)nc-3n(C[C@H](O)[C@H](O)[C@H](O)COP(=O)(O)OP(=O)(O)OC[C@H]3O[C@@H](n4cnc5c(N)ncnc54)[C@H](O)[C@@H]3O)c2cc1C [FAD] | Recombinant TcUGM contained noncovalently bound flavin cofactor |  |  |  |  |  |  |  |
| TcUGM (Trypanosoma cruzi strain CL Brener) |  | 90 ± 20 µM | 0.015 ± 0.002 s⁻¹ | 15 ± 2 µM | 0.030 ± 0.002 s⁻¹ | 140 ± 10 µM | 13.4 ± 0.3 s⁻¹ | 93000 ± 6000 M⁻¹ s⁻¹ |
